From patent US20200283482A1, “BICYCLIC PEPTIDE LIGAND PRR-A CONJUGATES AND USES THEREOF” (BicycleRD Limited, priority 2017, published 2020)
Starred links: 1 amine or outer side, 2 acyl side, 3 side chain; linkers in the order of their positions; H or OH if unused. Positions of bridges follow the written chain, without caps; N, C: chain ends. Non-standard residues stand in square brackets, D forms with d. Residues, ends and D or L forms follow the SMILES beside them. *: point of attachment. X7 = CCOCc1nc2c(NC(=O)CCCNC(=O)OCc3ccc(NC(=O)[C@H](CCCNC(N)=O)NC(=O)[C@@H](NC(=O)Cn4cc(CCC(=O)*)nn4)C(C)C)cc3)nc3ccccc3c2n1CC(C)(C)O; X8 = CCOCc1nc2c(NC(=O)OCc3ccc(NC(=O)[C@H](CCCNC(N)=O)NC(=O)C4(C(=O)*)CCC4)cc3)nc3ccccc3c2n1CC(C)(C)O; X10 = CCCOc1nc(NC(=O)OCCSSC(C)CCC(=O)*)c2[nH]c(=O)n(Cc3ccc(OCCN(C)C)nc3)c2n1; 1Nal = N[C@@H](Cc1cccc2ccccc12)C(=O)O; TBMB = c1c(C[*:1])cc(C[*:3])cc1C[*:2]; X5 = O=C(CCc1cn(CCCN[*:1])nn1)[*:2]; Tle = CC(C)(C)[C@H](N)C(=O)O; βAla = NCCC(=O)O; Sar = CNCC(=O)O

Columns and labels:
Plasma stability, human = format: in vitro ADME; details: pH 7.4
Description: (§1) The pooled frozen mouse, rat, dog, monkey or human plasma is thawed in a water bath at 37° C. prior to experiment. Plasma is centrifuged at 4000 rpm for 5 min and the clots are removed if any. […] For positive controls, 100 μM intermediate solution is prepared by diluting 20 μL of the stock solution with 180 μL 45% MeOH/H2O. […] For compounds I-7 to […]-17, […]-22, and […]-33, at each time point (0, 1, 2, 4, 6 and 24 hr), reactions were stopped by removing the plates from water bath and 200 μL 20 mM NH4OAC mix well first and then adding 800 μL of ice-cold stop solution (200 ng/mL Labetalol, 200 ng/mL Tolbutamide, 500 ng/mL N6-Ben and 40 mM DBAA in 100% Methanol). […] Sample plates were vortexed immediately on a plate shaker at 800 rpm for 10 min and then centrifuged at 4,000 rpm for 10 min. An aliquot of supernatant (200 μL) is transferred from each well before submitting to LC-MS/MS analysis. The percentage of test compound remaining at the individual time points relative to the 0 hour sample is calculated using following equation: Percent Remaining=100×(PAR at appointed incubation time/PAR at T0 time) where PAR is the peak area ratio of analyte versus internal standard (IS).

Plasma stability, cyno = format: in vitro ADME; details: cynomolgus monkey, pH 7.4
Description: as §1

Plasma stability, rat = format: in vitro ADME; details: pH 7.4
Description: as §1

Plasma stability, mouse = format: in vitro ADME; details: pH 7.4
Description: as §1

Plasma stability, dog = format: in vitro ADME; details: pH 7.4; dog plasma, 2 μM, 37° C.; read-out: T1/2 (dog)
Description: as §1

Blood stability, mouse = format: in vitro ADME, CD-1 mouse; details: male, CD-1, mouse
Description: CD-1 mouse blood (n≥2, male, fasted overnight) is collected from animals housed at an internal facility. (EDTA-K2 is used as anticoagulant)
The test compounds and positive control stock solutions are prepared to 10 mM in DMSO or ultrapure water. Control compounds bisacodyl, enalapril and propantheline known to be metabolised by blood are also incubated alongside each batch of test compounds I-7, I-22, I-24, I-25, I-27, and I-29 to I-33. The dosing solutions of test compounds and controls are prepared by diluting the stock solution with 45% MeOH/H2O to achieve 100 uM. Test compound solutions (final incubation concentration=2 μM) are incubated with blood (final DMSO concentration≤1%) at six different time points (0, 1, 2, 4, 6 and 24 hours) in duplicate (n=2). The reaction is terminated by adding 100 uL ultra-pure water, mixing well, then adding 800 uL of 100% methanol containing 200 ng/mL tolbutamide and 200 ng/mL labetalol as internal standards. Samples are then vortexed and centrifuged at 3200×g for 20 minutes. Following centrifugation, the concentration of test compound in the supernatant is determined semi-quantitatively by LC-MS/MS. The percentage of test compound remaining at the individual time points relative to the 0 hour sample is then reported. The percent remaining of test compound after incubation in blood is calculated using following equation: Percent Remaining=100×(PAR at appointed incubation time/PAR at T0 time) where PAR is the peak area ratio of analyte versus internal standard (IS).

SMILES	half-life at 2 μM (Plasma stability, human; human plasma, 2 μM, 37° C., read-out: T1/2 (human))	half-life at 2 μM (Plasma stability, cyno; cyno plasma, 2 μM, 37° C., read-out: T1/2 (cyno))	half-life at 2 μM (Plasma stability, rat; rat plasma, 2 μM, 37° C., read-out: T1/2 (rat))	half-life at 2 μM (Plasma stability, mouse; mouse plasma, 2 μM, 37° C., read-out: T1/2 (mouse))	half-life at 2 μM (Plasma stability, dog)	half-life at 2 μM (Plasma stability, human; human, plasma)	half-life at 2 μM (Plasma stability, cyno; plasma)	half-life at 2 μM (Plasma stability, rat; rat, plasma)	half-life at 2 μM (Plasma stability, mouse; mouse, plasma)	half-life at 2 μM (Blood stability, mouse)
CCCOc1nc(NC(=O)OCCSSC(C)CCC(=O)NCCC(=O)N(C)CC(=O)N(C)CC(=O)N(C)CC(=O)N(C)CC(=O)N(C)CC(=O)N(C)CC(=O)N(C)CC(=O)N(C)CC(=O)N(C)CC(=O)N(C)CC(=O)N[C@@H](C)C(=O)N[C@H]2CSCc3cc4cc(c3)CSC[C@H](NC(=O)[C@@H](C)NC(=O)[C@H](Cc3cccc5ccccc35)NC(=O)[C@H](CCC(=O)O)NC(=O)[C@H](CC(N)=O)NC(=O)[C@@H](C)NC2=O)C(=O)N[C@@H](CCC(=O)O)C(=O)N[C@@H](CC(=O)O)C(=O)N[C@@H](Cc2ccccc2)C(=O)N[C@@H](Cc2ccc(O)cc2)C(=O)N[C@@H](CC(=O)O)C(=O)N[C@@H](C(C)(C)C)C(=O)N[C@H](C(N)=O)CSC4)c2[nH]c(=O)n(Cc3ccc(OCCN(C)C)nc3)c2n1 (stereo partly drawn) [I-17] ({X10-βAla}-[Sar][Sar][Sar][Sar][Sar][Sar][Sar][Sar][Sar][Sar]AC[dA]NE[1Nal][dA]CEDFYD[Tle]C-NH2; linker 12-18-25 via TBMB)	< 2 h	< 2 h	< 2 h	< 2 h	< 2 h	–	–	–	–	–
CCOCc1nc2c(NC(=O)CCCNC(=O)OCc3ccc(NC(=O)[C@H](CCCNC(N)=O)NC(=O)[C@@H](NC(=O)Cn4cc(CCC(=O)NCCC(=O)N(C)CC(=O)N(C)CC(=O)N(C)CC(=O)N(C)CC(=O)N(C)CC(=O)N(C)CC(=O)N(C)CC(=O)N(C)CC(=O)N(C)CC(=O)N(C)CC(=O)N[C@@H](C)C(=O)N[C@H]5CSCc6cc7cc(c6)CSC[C@H](NC(=O)[C@@H](C)NC(=O)[C@H](Cc6cccc8ccccc68)NC(=O)[C@H](CCC(=O)O)NC(=O)[C@H](CC(N)=O)NC(=O)[C@@H](C)NC5=O)C(=O)N[C@@H](CCC(=O)O)C(=O)N[C@@H](CC(=O)O)C(=O)N[C@@H](Cc5ccccc5)C(=O)N[C@@H](Cc5ccc(O)cc5)C(=O)N[C@@H](CC(=O)O)C(=O)N[C@@H](C(C)(C)C)C(=O)N[C@H](C(N)=O)CSC7)nn4)C(C)C)cc3)nc3ccccc3c2n1CC(C)(C)O [I-27] ({X7-βAla}-[Sar][Sar][Sar][Sar][Sar][Sar][Sar][Sar][Sar][Sar]AC[dA]NE[1Nal][dA]CEDFYD[Tle]C-NH2; linker 12-18-25 via TBMB)	–	–	–	–	–	> 24 h	> 24 h	> 24 h	< 2 h	2 to 6 h
CCOCc1nc2c(NC(=O)OCc3ccc(NC(=O)[C@H](CCCNC(N)=O)NC(=O)C4(C(=O)NCCCn5cc(CCC(=O)NCCC(=O)N(C)CC(=O)N(C)CC(=O)N(C)CC(=O)N(C)CC(=O)N(C)CC(=O)N(C)CC(=O)N(C)CC(=O)N(C)CC(=O)N(C)CC(=O)N(C)CC(=O)N[C@@H](C)C(=O)N[C@H]6CSCc7cc8cc(c7)CSC[C@H](NC(=O)[C@@H](C)NC(=O)[C@H](Cc7cccc9ccccc79)NC(=O)[C@H](CCC(=O)O)NC(=O)[C@H](CC(N)=O)NC(=O)[C@@H](C)NC6=O)C(=O)N[C@@H](CCC(=O)O)C(=O)N[C@@H](CC(=O)O)C(=O)N[C@@H](Cc6ccccc6)C(=O)N[C@@H](Cc6ccc(O)cc6)C(=O)N[C@@H](CC(=O)O)C(=O)N[C@@H](C(C)(C)C)C(=O)N[C@H](C(N)=O)CSC8)nn5)CCC4)cc3)nc3ccccc3c2n1CC(C)(C)O [I-29] (X8-[X5][βAla][Sar][Sar][Sar][Sar][Sar][Sar][Sar][Sar][Sar][Sar]AC[dA]NE[1Nal][dA]CEDFYD[Tle]C-NH2; linker 14-20-27 via TBMB)	–	–	–	–	–	> 24 h	> 24 h	6 to 24 h	> 24 h	< 2 h
